From patent publication US20250090676A1 (SUTRO BIOPHARMA, published 2025)

B1: SRP1848-A01 (antibody, V domains shown)
VH: EVQLVESGGGLVQPGGSLRLSCAASGFNITRYSIHWVRQAPGKGLEWVAGILPESGGTSYADSVKGRFTISADTSKNTAYLQMNSLRAEDTAVYYCARHIYPWDWFSNYVLDYWGQGTLVTVSS
VL: not shown
notes: IgG with common trastuzumab LC, cell-free expressed, HIS- and FLAG-tagged; also called Antibody 1
B2: SRP1848-A02 (antibody, V domains shown)
VH: EVQLVESGGGLVQPGGSLRLSCAASGFNISGFRIHWVRQAPGKGLEWVAGIYPESGATYYADSVKGRFTISADTSKNTAYLQMNSLRAEDTAVYYCARHLYVWDWVLDHVLDYWGQGTLVTVSS
VL: not shown
notes: IgG with common trastuzumab LC, cell-free expressed, HIS- and FLAG-tagged; also called Antibody 2
B3: SRP1848-F04 (antibody, V domains shown)
VH: EVQLVESGGGLVQPGGSLRLSCAASGFNISNYSIHWVRQAPGKGLEWVGEIYPIDGITDYADSVKGRFTISADTSKNTAYLQMNSLRAEDTAVYYCARGSWFWRSGYGYYLDYWGQGTLVTVSS
VL: not shown
notes: IgG with common trastuzumab LC, cell-free expressed, HIS- and FLAG-tagged; also called Antibody 39
B4: SRP1848-B03 (antibody, V domains shown)
VH: EVQLVESGGGLVQPGGSLRLSCAASGFNISMKYIHWVRQAPGKGLEWVGGITPIDGMTDYADSVKGRFTISADTSKNTAYLQMNSLRAEDTAVYYCARGSWSWPSGYSYYLDYWGQGTLVTVSS
VL: not shown
notes: IgG with common trastuzumab LC, cell-free expressed, HIS- and FLAG-tagged; also called Antibody 10
B5: SRP1848-B05 (antibody, V domains shown)
VH: EVQLVESGGGLVQPGGSLRLSCAASGFNISNYYIHWVRQAPGKGLEWVGGISPIDGYTDYADSMKGRFTISADTSKNTAYLQMSSLRAEDTAVYYCARGSWFWQSGYGYYLDYWGQGTLVTVSS
VL: not shown
notes: IgG with common trastuzumab LC, cell-free expressed, HIS- and FLAG-tagged; also called Antibody 12
B6: SRP1848-C04 (antibody, V domains shown)
VH: EVQLVESGGGLVQPGGSLRLSCAASGFNIRHYSIHWVRQAPGKGLEWVGEIYPGPGNTDYADSVKGRFTISADTSKNTAYLQMNSLRAEDTAVYYCARGSLSWRAGYGYYLDYWGQGTLVTVSS
VL: not shown
notes: IgG with common trastuzumab LC, cell-free expressed, HIS- and FLAG-tagged; also called Antibody 20
B7: SRP1848-B10 (antibody, V domains shown)
VH: EVQLVESGGGLVQPGGSLRLSCAASGFNTTTKSIHWVRQAPGKGLEWVGEIYPRDGITDYADSVKGRFTISADTSKNTAYLQMNSLRAEDTAVYYCARGGWHWRSGYSYYLDYWGQGTLVTVSS
VL: not shown
notes: IgG with common trastuzumab LC, cell-free expressed, HIS- and FLAG-tagged; also called Antibody 16
B8: SRP1848-C10 (antibody, V domains shown)
VH: EVQLVESGGGLVQPGGSLRLSCAASGFNIRTYYIHWVRQAPGKGLEWVGGISPIDGYTDYADSVKGRFTISADTSKNTAYLQMNSLRAEDTAVYYCARGSWSWPAGYGYYLDYWGQGTLVTVSS
VL: not shown
notes: IgG with common trastuzumab LC, cell-free expressed, HIS- and FLAG-tagged; also called Antibody 23
B9: SRP1848-A04 (antibody, V domains shown)
VH: EVQLVESGGGLVQPGGSLRLSCAASGFNIDQSSIHWVRQAPGKGLEWVGVIYPVDGTTDYADSVKGRFTISADTSKNTAYLQMNSLRAEDTAVYYCARGAWSWRSGYGYYIDYWGQGTLVTVSS
VL: not shown
notes: IgG with common trastuzumab LC, cell-free expressed, HIS- and FLAG-tagged; also called Antibody 3
B10: SRP1848-A08 (antibody, V domains shown)
VH: EVQLVESGGGLVQPGGSLRLSCAASGSNIRKHSIHWVRQAPGKGLEWVGSIYPNDGTTDYADSVKGRFTISADTSKNTAYLQMNSLRAEDTAVYYCARGSWFWRAGYGYYLDYWGQGTLVTVSS
VL: not shown
notes: IgG with common trastuzumab LC, cell-free expressed, HIS- and FLAG-tagged; also called Antibody 6
B11: SRP1848-A07 (antibody, V domains shown)
VH: EVQLVESGGGLVQPGGSLRLSCAASGFNIGYHSIHWVRQAPGKGLEWVGEIFPVDGTTDYADSVKGRFTISADTSKNTAYLHMNSLRAEDTAVYYCARGFWAWRSGYGYYLDYWGQGTLVTVSS
VL: not shown
notes: IgG with common trastuzumab LC, cell-free expressed, HIS- and FLAG-tagged; also called Antibody 5
B12: SRP1848-C07 (antibody, V domains shown)
VH: EVQLVESGGGLVQPGGSLRLSCAASGFNIRKYSIHWVRQAPGKGLEWVGDIFPIDGITDYADSMKGRFTISADTSKNTAYLQMNSLRAEDTAVYYCARGSWSWPAGYGYYQDYWGQGTLVTVSS
VL: not shown
notes: IgG with common trastuzumab LC, cell-free expressed, HIS- and FLAG-tagged; also called Antibody 22
B13: SRP1848-A10 (antibody, V domains shown)
VH: EVQLVESGGGLVQPGGSLRLSCAASGFNIRKYSIHWARQAPGKGLEWVGDIFPIDDITDYADSVKGRFTISADTSKNTAYLQMNSLRAEDTAVYYCARGSWSWPSGHSYYLDYWGQGTLVTVSS
VL: not shown
notes: IgG with common trastuzumab LC, cell-free expressed, HIS- and FLAG-tagged; also called Antibody 8
B14: SRP1848-B04 (antibody, V domains shown)
VH: EVQLVESGGGLVQPGGSLRLSCAASSFNISNHSIHWVRQAPGKGLEWVGEIYPVDGITDYADSVKGRFTISADTSKNTAYLQMNSLRAEDTAVYYCARGRYSWRAGYSYYLDYWGQGTLVTVSS
VL: not shown
notes: IgG with common trastuzumab LC, cell-free expressed, HIS- and FLAG-tagged; also called Antibody 11
B15: SRP1848-C01 (antibody, V domains shown)
VH: EVQLVESGGGLVQPGGSLRLSCAASGFNIGNSYIHWVRQAPGKGLEWVGGVTPNDGYTDYADSVKGRFTISADTSKNTTYLQMNSLRAEDTAVYYCARGSWFWRAGYGYYLDYWGQGALVTVSS
VL: not shown
notes: IgG with common trastuzumab LC, cell-free expressed, HIS- and FLAG-tagged; also called Antibody 18
B16: SRP1848-B06 (antibody, V domains shown)
VH: EVQLVESGGGLVQPGGSLRLSCAASGFNISNYYIHWVRQAPGKGLEWVGGITPIDGYTDYADSVKGRFTISADTSKNTAYLQMNSLRAEDTAVYYCARGFWSWPSGYGYYQDYWGQGTLVTVSS
VL: not shown
notes: IgG with common trastuzumab LC, cell-free expressed, HIS- and FLAG-tagged; also called Antibody 13
B17: SRP1848-D04 (antibody, V domains shown)
VH: EVQLVESGGGLVQPGGSLRLSCAASGFNISHYSIHWVRQAPGKGLEWVGEIYPRDGITDYADSVKGRFTISADTSKNTAYLQMNSLSAEDTAVYYCARGYWFWRSGYGYYLDYWGQGTLVTVSS
VL: not shown
notes: IgG with common trastuzumab LC, cell-free expressed, HIS- and FLAG-tagged; also called Antibody 26
B18: SRP1848-D02 (antibody, V domains shown)
VH: EVQLVESGGGLVQPGGSLRLSCAASGFNISHNYIHWVRQAPGKGLEWVGGITPQDGYTDYADSVKGRFTISADTSKNTAYLQMNRLRAEDTAVYYCARGAWSWRAGYGYYLDYWGQGTLVTVSS
VL: not shown
notes: IgG with common trastuzumab LC, cell-free expressed, HIS- and FLAG-tagged; also called Antibody 24
B19: SRP1848-B07 (antibody, V domains shown)
VH: EVQLVESGGGLVQPGGSLRLSCAASGFNISRFYIHWVRQAPGKGLEWVGGISPYDGFTDYADSVKGRFTISADTSKNTAYLQMNSLRAEDTAVYYCARGSWSWPAGYGYYQDYWGQGTLVTVSS
VL: not shown
notes: IgG with common trastuzumab LC, cell-free expressed, HIS- and FLAG-tagged; also called Antibody 14
B20: SRP1848-B01 (antibody, V domains shown)
VH: EVQLVESGGGLVQPGGSLRLSCAASGFNIRNYSIHWVRQAPGKGLEWVGEIYPVDGITDYADSVKGRFTISADTSKNTAYLQMNSLRAEDTAVYYCARGFWSWPSGYSYFLDYWGQGTLVTVSS
VL: not shown
notes: IgG with common trastuzumab LC, cell-free expressed, HIS- and FLAG-tagged; also called Antibody 9
B21: SRP1848-C05 (antibody, V domains shown)
VH: EVQLVESGGGLVQPGGSLRLSCAASGFNIRKYSIHWVRQAPGKGLEWVGDIFPIDGINDYADSVKGRFTISADTSKNTAYLQMNSLRAEDTAVYYCARGSWSWKAGYGYYLDYWGQGTLVTVSS
VL: not shown
notes: IgG with common trastuzumab LC, cell-free expressed, HIS- and FLAG-tagged; also called Antibody 21
B22: SRP1848-B11 (antibody, V domains shown)
VH: EVQLVESGGGLVQPGGSLRLSCAASGFNIGNNSIHWVRQAPGKGLEWVGDISPIDGFTDYADSVKGRFTISADTSKNTAYLQMNSLRAEDTAVYYCARGSWSWRAGYGYYLDYWGQGTLVTVSS
VL: not shown
notes: IgG with common trastuzumab LC, cell-free expressed, HIS- and FLAG-tagged; also called Antibody 17
B23: SRP1848-B09 (antibody, V domains shown)
VH: EVQLVESGGGLVQPGGSLRLSCAAGGFNITNYYIHWVRQAPGKGLEWVGGITPVDGYTDYADRVKGRFTISADTSKNTAYLQMNSLRAEDTAVYYCARGAWSWRSGYGYYMDYWGQGTLVTVSS
VL: not shown
notes: IgG with common trastuzumab LC, cell-free expressed, HIS- and FLAG-tagged; also called Antibody 15
B24: SRP1848-A06 (antibody, V domains shown)
VH: EVQLVESGGGLVQPGGSLRLSCAASGFNIGNSYIHWVRQAPGKGLEWVGGITPIDGNTDYADSVKGRFTISADTSKNTAYLQMNSLRAEDTAVYYCARGAWSWRSGYGYYIDYWGQGTLVTVSS
VL: not shown
notes: IgG with common trastuzumab LC, cell-free expressed, HIS- and FLAG-tagged; also called Antibody 4
B25: SRP1848-C03 (antibody, V domains shown)
VH: EVQLVESGGGLVQPGGSLRLSCAASGFNIGVYSIHWVRQAPGKGLEWVGEIYPIDGNTDYADSVKGRFTISADTSKNTAYLQMNSLRAEDTAVYYCARGSWAWRSGYSYYLDYWGQGTLVTVSS
VL: not shown
notes: IgG with common trastuzumab LC, cell-free expressed, HIS- and FLAG-tagged; also called Antibody 19
B26: SRP1848-A09 (antibody, V domains shown)
VH: EVQLVESGGGLVQPGGSLRLSCAASGFNIRKQSIHWVRQAPGKGLEWVGSIFPNDGTTDYADSVKGRFTISADTSKNTAYLQVNSLRAEDTAVYYCARGSWFWRSGYGYFLEYWGQGTLVTVSS
VL: not shown
notes: IgG with common trastuzumab LC, cell-free expressed, HIS- and FLAG-tagged; also called Antibody 7
B27: SRP1848-D05 (antibody, V domains shown)
VH: EVQLVESGGGLVQPGGSLRLSCAASGFNISISYIHWVRQAPGKGLEWVGGISPIDGYTDYADSVKGRFTISADTSKNTAYLQMNSLRAEDTAVYYCARGSWSWRAGYGYYLDYWGQGTLVTVSS
VL: not shown
notes: IgG with common trastuzumab LC, cell-free expressed, HIS- and FLAG-tagged; also called Antibody 27

Biological target: T1, human FOLR1-HIS (human, UniProt P15328 25-233)
T1 construct: Analyte of the Biacore assay; also called FolRα-ECD; extracellular domain of FOLR1; not shown: HIS tag
Test: SPR (Biacore), antibody captured on anti-Fc, human FOLR1-HIS analyte, 25 C
Description: Anti-Fc polyclonal antibodies were immobilized onto a CM5 chip (GE Life Sciences) using amine coupling chemistry (from Amine Coupling Kit, GE Life Sciences). The immobilization steps were carried out at a flow rate of 25 μL/min in 1×HBS-EP+ buffer (GE Life Sciences; 10× Stock diluted before use). […] Ethanolamine (1 M, pH 8.5) was injected for 7 min to block any remaining activated groups. An average of 12,000 response units (RU) of capture antibody was immobilized on each flow cell.
Off-rate and kinetic binding experiments were performed at 25° C. using 1×HBS-EP+ buffer. […] Between each ligand capture and analyte binding cycle, regeneration was carried out using 2 injections of 10 mM glycine pH 2.0 for 30 seconds at 30 μL/min, followed by a 30 second buffer wash step.
The data were fit with the Biacore T200 Evaluation software, using a 1:1 Langmuir binding model. KD (affinity, nM) was determined as a ratio of the kinetic rate constants calculated from the fits of the association and dissociation phases.

T1 sequence (P15328 25-233 limits assumed): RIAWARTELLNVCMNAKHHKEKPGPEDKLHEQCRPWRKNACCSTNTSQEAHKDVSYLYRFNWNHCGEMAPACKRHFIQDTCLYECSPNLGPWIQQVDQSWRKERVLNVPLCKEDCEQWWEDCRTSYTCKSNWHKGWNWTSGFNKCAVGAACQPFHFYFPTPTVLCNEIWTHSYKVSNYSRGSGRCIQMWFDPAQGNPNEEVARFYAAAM

Binder | Kd [nM] | koff [s⁻¹] | kon [M⁻¹ s⁻¹]
B1 | 1.87 | 0.00155 | 829000
B2 | 16.8 | 0.00882 | 525000
B3 | 1.32 | 0.00108 | 815000
B4 | 7.63 | 0.00859 | 1.13e+06
B5 | 9.07 | 0.00885 | 976000
B6 | 3.86 | 0.00499 | 1.29e+06
B7 | 2.18 |  | 
B8 | 4.03 | 0.00363 | 899000
B9 | 2.03 | 0.00326 | 1.61e+06
B10 | 2.42 | 0.00119 | 493000
B11 | 0.855 | 0.000866 | 1.01e+06
B12 | 2.21 | 0.00189 | 856000
B13 | 2.74 | 0.0033 | 1.2e+06
B14 | 1.5 | 0.00117 | 780000
B15 | 3.05 |  | 
B16 | 5.1 | 0.00317 | 620000
B17 | 3.48 | 0.00173 | 497000
B18 | 2.41 | 0.00205 | 851000
B19 | 5.35 | 0.00378 | 706000
B20 | 3.67 | 0.00416 | 1.13e+06
B21 | 4.29 | 0.00454 | 1.06e+06
B22 | 1.52 | 0.00186 | 1.22e+06
B23 | 4.26 | 0.00661 | 1.55e+06
B24 | 3.51 |  | 
B25 | 1.11 | 0.00152 | 1.36e+06
B26 | 1.82 |  | 
B27 | 2.93 |  | 
